Results as given in patent CN113956352A (FUJIAN MEDICAL UNIV UNION HOSPITAL, dated 2022).

Experiments:
SARS-CoV-2 S蛋白 (刺突糖蛋白) = SARS-CoV-2 S蛋白 (刺突糖蛋白) (SARS-CoV-2, UniProt P0DTC2 14-1273); assay: cell-based or functional assay
[1] = molecular target: SARS-CoV-2 RBD蛋白 (ELISA coating antigen) (SARS-CoV-2, UniProt P0DTC2 319-541); assay: ELISA, plate coated with SARS-CoV-2 RBD, antibody 1 μg/mL, goat anti-human IgG-HRP
[2] = molecular target: SARS-CoV-2 S-RBD蛋白 (Acrobiosystems, cat.# SPD-C52H3) (SARS-CoV-2, UniProt P0DTC2 319-537); assay: SPR (Biacore 8K), antibody captured on Protein A chip, S-RBD 50-0.78125 nM, 1:1 Langmuir fit

B1: R44 (antibody, V domains shown)
VH: QVQLVQSGGGLVQPGGSLRLSCAASEITVSSNYMSWVRQAPGKGLEWVSVLYSGGSTDYADSVKGRFTISRDNSKNTLYLQMNSLRAEDTAVYYCAREVYGMDVWGQGTTVTVSS
VL: DIVLTQTPSSLSASVGDRVTITCRASQGISSYLAWYQQKPGKAPKLLIYAASTLQSGVPSRFSGSGSGTDFTLTISSLQPEDFATYYCQELSTYPVTFGQGTKVEIK
For B1, the “假病毒的抑制率IC50 (Luciferase RLU, Spike假病毒, 293T-ACE2细胞)” value (SARS-CoV-2 S蛋白 (刺突糖蛋白)) was 1.6 µg/mL, the “ELISA值 (OD450)” value [1] was 1.17 OD450 and the Kd [2] was 0.205 nM.

B2: R157 (antibody, V domains shown)
VH: QVQLVQSGAEVKKPGSSVKVSCKASGGTFSSYAINWVRQAPGQGLEWMGGIIPILGIANYAQKFQGRVTITADKSTSTAYMELSSLRSEDTAVYYCAREQGYSGSGANYYFDYWGQGTLVTVSS
VL: QSVLTQPPSVSGAPGQRVTVSCTGSSSNIGAGYDVHWYQQLPGTAPKLLIYGNTNRPSGVPDRFSGSKSGTSASLAITGLQAEDEADYYCQSYDSSLSDVVFGGGTQLTVL
B2 was tested, and the “ELISA值 (OD450)” value [1] was 1.14 OD450.

B3: R14 (antibody, V domains shown)
VH: QVQLVQSGAEVKKPGSSVKVSCKASGGTFSSYTISWVRQAPGQGLEWMGRIIPILGIANYAQKFQGRVTITADKSTSTAYMELSSLRSEDTAVYYCAREIGYSSSGSNYYMDVWGKGTTVTVSS
VL: QSVLTQPPSVSGAPGQRVTISCTGSSSNIGAGYDVHWYQQLPGTAPKLLIYGNSNRPSGVPDRFSGSKSGTSASLAITGLQAEDEADYYCQSYDSSLSGVVFGGGTKLTVL
For B3, the “ELISA值 (OD450)” value [1] was 1.01 OD450.

B4: R29 (antibody, V domains shown)
VH: EVQLLESGGGLVQPGRSLRLSCAASGFTFDDYGIHWVRQAQGKGLEWVSGISWNSGTIGYADSVKGRFTISRDNAKNSLYLQMNSLRAEDTALYYCAKDRGGKLRWYEREEYYFDYWGQGTLVTVSS
VL: SYVLTQPPSVSVAPGQTAKITCGGNDIGRKSVYWYQQKPGQAPILVIYYSSDRPSGIPDRFSGSNSGNTATLTIGRVEAGDEADYYCQVWDSTSDHVIFGGGTKLTVL
B4 was tested, and the “ELISA值 (OD450)” value [1] was 1.06 OD450.
